According to the DeepSol protein solubility set:

Experiment: soluble on expression in E. coli; label from the status in PepcDB or PDB records

Sequence | soluble on expression in E. coli
MLRKQVYLTPEEEAKLKRLARATGRTEAEILRLALDLLPEEEAPLLLALAEEGLLEVPERAVTPARMEEAYRRYLDRVAGRGLGLSKAVLADREGR | soluble
METRREERIGQLLQELKRSDKLHLKDAAALLGVSEMTIRRDLNNHSAPVVLLGGYIVLEPRSASHYLLSDQKSRLVEEKRRAAKLAATLVEPDQTLFFDCGTTTPWIIEAIDNEIPFTAVCYSLNTFLALKEKPHCRAFLCGGEFHASNAIFKPIDFQQTLNNFCPDIAFYSAAGVHVSKGATCFNLEELPVKHWAMSMAQKHVLVVDHSKFGKVRPARMGDLKRFDIVVSDCCPEDEYVKYAQTQRIKLMYLEHHHHHH | soluble
MIGRERMTVASQRLIAERTYELTLSGRLVQEMRQPGQFVHVKVAASADPLLRRPLSLCHIDHKQGQCTIIYRQEGKGTALLAQKQPGDTVDVLGPLGNGFPLEAAPADSRALLVGGGIGVPPLYELAKQLTKRGVKVVSVLGFQTKAAVFYEEEFAAFGETHVATDDGSHGTAGRVTDVIEARSLEFDVLYACGPKPMLRALAERFPNRPVYLSLEERMGCGVGACFACVCHVPGSETAYKKVCSDGPVFRAGEVVL | soluble
MSLGMHGAAHIVWDWNGTLFHDNAAIIGATNAAFAELGLEPITLERYRALYCVPVPKFYERLIGRLPTDAEWEIMDEIFHRYYAEHRVGCGLTEGAAELLVEWQSAGHSQSILSMYVHDELVPLVRGFGIEPHFIRVDGRTGPSGGSKAEHMVRHIGALAGVAGVDPARTVVIGDAADDAVAALHVGAQAVLYTGGSHSRASLEGVGVPVVDTLAEAVEEAGRLAAEGHHHHHH | soluble
MAHHHHHHMSLKAKLDVYPVENYTQTSVDVSNGHAGVAGNKVNLGAGSAAPFRPPSAIEKLLSLKKRCEEEPCVHSVEGVLLVHLHRHPHILLMKQINSRTRDADGMRTVPPSNTNAEVTYRLPGGRCRRGEAEESCLLRKLGRHLLNEAKTPAGAAEVASTGNSDTVVDVGMTHTASKAGSCFRVGEVLATWYRPHFTPHMYPYVPAHIAAGSVREVRTIYLVHLEPTVYFTMVQESVELVAAPLFDLYENSSKYGPIVASLPVLLSRVLINYCSTEY | not soluble
MPENSQPTTTEKGSEYLEQLANEAEELRKKLDQERHKLNDIPIQQAAERLDVMGALGVKQRRILKGHVGKVLCMDWSLDKRHIVSSSQDGKVIVWDGFTTNKEHALTMPTTWVMACAFSPSSQMIACGGLDNKCSVVPLSFEDDIIQKKRQVATHTSYMSCCTFLRSDNLILTGSGDSTCAIWDVESGQLIQNFHGHTGDVFAIDVPKCDTGNTFISAGADKHSLVWDIRSGQCVQSFEGHEADINTVRFHPNGDAFATGSDDATCRLFDLRADRQVCVYEKESILFPVNGVDFSLSGRILFAGYGDYRVGVWDSLKCARHSVLYGHENRISCLRTSPDGTAVCSASWDCTIRIWA | not soluble
QVEFYFSEFNFPYDRFLRTTAEKNDGWVPISTIATFNRMKKYRPVDKVIEALRSSEILEVSADGENVKRRVPLDLTAARNARIEQNQRTLAVMNFPHEDVEASQIPELQENLEAFFKKLGEINQVRLRRDHRNKKFNGTVLVEFKTIPECEAFLKSYSNDDESNEILSYEGKKLSVLT | not soluble
MSLEHQLANVYETKIRRNEHPTIPRPLVTFEPAAIRSKPSSPISELEVFTSEQLIKVTSSIRWKTLSSAVLGAGFKWHQTFVNRHVSKDYYCDDVEREFQTFLSNVGVDGTDALGMMTAAILEDVAITEATYESFKVRVFVTAGISNAVDAAKAHLRKRNEATVGTINTWVFIEGTLPDAAYVQALMTATEAKGRALAEKEILDPVTGTLATGTSTDSVMIASSQTGTYFPYAGTITPLGQAIGKLVYDATIQAVTDNEKRRLEREGHHHHHH | soluble
DIVLTQSPATLSVTPGNSVSLSCRASQSIGNNLHWYQQKSHESPRLLIKYASQSISGIPSRFSGSGSGTDFTLSINSVETEDFGMYFCQQSNSWPYTFGGGTKLEITGGGGSGGGGSGGGGSDIQLQESGPSLVKPSQTLSLTCSVTGDSITSDYWSWIRKFPGNRLEYMGYVSYSGSTYYNPSLKSRISITRDTSKNQYYLDLNSVTTEDTATYYCANWDGDYWGQGTLVTVSAAHHHHHH | soluble
MAGDPMLLTGTLKREAGNKMGQKPKIAIFGGGTGLSVLLRGLKHKPVDITAIVTVADDGGSSGRLRNELKIPPPGDIRNVLAALSDVEPLVEDLFQHRFNKGNDLTGHSLGNLILAAMTNITGDFFHAVTEMSKVLNVRGKVLPAANASVVLHAEMEDGRVVSGESTIPEYGQRIKRVFLTPEQIDPLPETIDVIREADLIIIGPGSLYTSILPNLLVPKIGEEVIKAPAKKVYICNVMTQPGETLHYTAADHVKALNQHMGCGFIDTILVNSEDIPDEIKRKYEMESARPVDFDIEELKAMGLEVIRDQIVTYKNDVIRHDTHKVASLLVDLLKELEHHHHHH | soluble
MGSDKIHHHHHHMTMQQVLDGTATFMEHLGLNEEPLGVYYSDDKPENAFGPKTGVPISRELEESGKLDMREVMKSFTCVMGSIWLARKKHGAAFISQTEYGCPGGVYYCAMLQPHLRFIEHYVSTGFEGTPLQGERYMPDPDAMRNFILRVAPRKAPARYCIFKPLSLFSAQEKPEFIIFFARPEVLTGLFTQTVFTTGDMDCVASPFGAGCTNILGWPLYYKEKGIEKAVIGGFDPSARKFMKTDELTFTVPLSLYEKMLAALPESMFTHETDWKNVRKKVARSAKAWRVRRPGAKQPPPSTCPITY | not soluble
MLPLEPYLTQTSAVPQMSHFMCHSPTHKPQGLLPWAPFHQASVSLYPISPWPSESVCPPTCPGGASCWFPAGNAWDRVELGFLGFGAGGVSIAVPGFPLSCGQGCCAGGWLGHGARFPAKLRAFPQVIRRGWLTINNISLMKGGSKEYWFVLTAESLSWYKDEEEKEKKYMLPLDNLKIRDVEKGFMSNKHVFAIFNTEQRNVYKDLRQIELACDSQEDVDSWKASFLRAGVYPEKDQAENEDGAQENTFSMDPQLERQVETIRNLVDSYVAIINKSIRDLMPKTIMHLMINNTKAFIHHELLAYLYSSADQSSLMEESADQAQRRDDMLRMYHALKEALNIIGDISTSTVSTPVPPPVDDTWLQSASSHSPTPQRRPVSSIHPPGRPPAVRGPTPGPPLIPVPVGAAASFSAPPIPSRPGPQSVFANSDLFPAPPQIPSRPVRIPPGIPPGVPRRPPAAPSRPTIIRPAEPSLLD | soluble
MKLSQVVVSAVAFTGLVSAANSSNSSSSKNAAQPIAGLNNGKVAGAAGVALAGALAFLI | soluble
MAGDPMETLLIQQTEKSNKFWKIVVKEKDYVVFYGKIGTAGSVKAKEFETEEECMNEANKLVASKRKKGYIDPLPGEDYIKEKTITEEEFWELLHRAKTKGEDQEEQIEWLTSHLAKRTVHEIVAFDTHMHSLLKDSYTSRLWAAAYIIMGGCSDDTFDYFRGWLLYQGKETYEACIEDPERLIPVLENLSEYDVPEIEELSLYFGFTVYAEKTGDEDDTYFTLYHVLSNEEFDDVDFEFDWNEDDEEGLKKVFPRLWEMYGEEPIEWLEHHHHHH | soluble
PLGSKDNRLLYPKTKIDWGPGENHICLKTPFKNFYVIELFHQAPTFDKTIPLFISDINNSPNLYGIYNYIADHLRHVVLVNNYPVNQINIFGKIVYEQYKEKEFNGVEESYVILVISDFIGIDSKIRVRLSQEQFKEVGLTLDKKNYGKIVELEGEIYNWYDSINVSKKPDRELKVSKITVLSHRPDGLHFEFEQWKKRMEFRKNNLVEPWVFIPTPQRE | soluble
MTTMSGYTRSQRPRQAILGQLPRIHRADGSPIRVLLVDDEPALTNLVKMALHYEGWDVEVAHDGQEAIAKFDKVGPDVLVLDIMLPDVDGLEILRRVRESDVYTPTLFLTARDSVMDRVTGLTSGADDYMTKPFSLEELVARLRGLLRRSSHLERPADEALRVGDLTLDGASREVTRDGTPISLSSTEFELLRFLMRNPRRALSRTEILDRVWNYDFAGRTSIVDLYISYLRKKIDSDREPMIHTVRGIGYMLRPPE | not soluble
SVTDNNGAVKFPQLCKFCDVRFSTCDNQKSCMSNCSITSICEKPQEVCVAVWRKNDENITLETVCHDPKLPYHDFILEDAASPKCIMKEKKKPGETFFMCSCSSDECNDNIIFSEEYNTSNPD | soluble
